Kd data for 27 molecules are collected here from publication PMC10786891, “Massively parallel profiling of RNA-targeting CRISPR-Cas13d”.

Sequences and labels used below:
B1: target 1 G5U,U10C (mixed)
RNA 1: CACCCGUGCAAAAAUGCAGGGGUCUAAAACUGAGCGGAUAACCUCUCUAUGG
RNA 2: GGGAAUGGAUCCACAUCUACGAAUUCGUACCAUAGAGAGGUCAUCCUCUCACCGAGAUCGGAAGAGCACACGU
B2: target 1 insG 3' of 21,insU 3' of 1 (mixed)
RNA 1: CACCCGUGCAAAAAUGCAGGGGUCUAAAACUGAGCGGAUAACCUCUCUAUGG
RNA 2: GGGAAUGGAUCCACAUCUACGAAUUCGUACCGAUAGAGAGGUUAUCCGCUCAUCCGAGAUCGGAAGAGCACACGU
B3: target 3 insA 3' of 22,insC 3' of 20 (mixed)
RNA 1: CACCCGUGCAAAAUUGCAGGGGUCUAAAACGACCUGAAUAUUUCAGAUCAAA
RNA 2: GGGAAUGGAUCCACAUCUACGAAUUCGUUUAUUCGAUCUGAAAUAUUCAGGUCUGCAGAUCGGAAGAGCACACGU
B4: target 3 del1,del6 (mixed)
RNA 1: CACCCGUGCAAAAUUGCAGGGGUCUAAAACGACCUGAAUAUUUCAGAUCAAA
RNA 2: GGGAAUGGAUCCACAUCUACGAAUUCGUUUUUGAUCUGAAAUAUUAGGUUGCAGAUCGGAAGAGCACACGU
B5: target 3 C6U,A12U (mixed)
RNA 1: CACCCGUGCAAAAUUGCAGGGGUCUAAAACGACCUGAAUAUUUCAGAUCAAA
RNA 2: GGGAAUGGAUCCACAUCUACGAAUUCGUUUUUGAUCUGAUAUAUUUAGGUCUGCAGAUCGGAAGAGCACACGU
B6: target 3 U8C,U22A (mixed)
RNA 1: CACCCGUGCAAAAUUGCAGGGGUCUAAAACGACCUGAAUAUUUCAGAUCAAA
RNA 2: GGGAAUGGAUCCACAUCUACGAAUUCGUUAUUGAUCUGAAAUACUCAGGUCUGCAGAUCGGAAGAGCACACGU
B7: target 3 G3A,A18G (mixed)
RNA 1: CACCCGUGCAAAAUUGCAGGGGUCUAAAACGACCUGAAUAUUUCAGAUCAAA
RNA 2: GGGAAUGGAUCCACAUCUACGAAUUCGUUUUUGGUCUGAAAUAUUCAGAUCUGCAGAUCGGAAGAGCACACGU
B8: target 3 insU 3' of 9,insA 3' of 8 (mixed)
RNA 1: CACCCGUGCAAAAUUGCAGGGGUCUAAAACGACCUGAAUAUUUCAGAUCAAA
RNA 2: GGGAAUGGAUCCACAUCUACGAAUUCGUUUUUGAUCUGAAAUAUUAUCAGGUCUGCAGAUCGGAAGAGCACACGU
B9: target 3 insU 3' of 22,insG 3' of 2 (mixed)
RNA 1: CACCCGUGCAAAAUUGCAGGGGUCUAAAACGACCUGAAUAUUUCAGAUCAAA
RNA 2: GGGAAUGGAUCCACAUCUACGAAUUCGUUUUUUGAUCUGAAAUAUUCAGGUGCUGCAGAUCGGAAGAGCACACGU
B10: target 3 insU 3' of 6,insA 3' of 6 (mixed)
RNA 1: CACCCGUGCAAAAUUGCAGGGGUCUAAAACGACCUGAAUAUUUCAGAUCAAA
RNA 2: GGGAAUGGAUCCACAUCUACGAAUUCGUUUUUGAUCUGAAAUAUUCUAAGGUCUGCAGAUCGGAAGAGCACACGU
B11: target 3 insC 3' of 4,insA 3' of 2 (mixed)
RNA 1: CACCCGUGCAAAAUUGCAGGGGUCUAAAACGACCUGAAUAUUUCAGAUCAAA
RNA 2: GGGAAUGGAUCCACAUCUACGAAUUCGUUUUUGAUCUGAAAUAUUCAGCGUACUGCAGAUCGGAAGAGCACACGU
B12: target 3 insU 3' of 11,insG 3' of 6 (mixed)
RNA 1: CACCCGUGCAAAAUUGCAGGGGUCUAAAACGACCUGAAUAUUUCAGAUCAAA
RNA 2: GGGAAUGGAUCCACAUCUACGAAUUCGUUUUUGAUCUGAAAUUAUUCGAGGUCUGCAGAUCGGAAGAGCACACGU
B13: target 3 A5C,C6A (mixed)
RNA 1: CACCCGUGCAAAAUUGCAGGGGUCUAAAACGACCUGAAUAUUUCAGAUCAAA
RNA 2: GGGAAUGGAUCCACAUCUACGAAUUCGUUUUUGAUCUGAAAUAUUACGGUCUGCAGAUCGGAAGAGCACACGU
B14: target 3 C1G,A9C (mixed)
RNA 1: CACCCGUGCAAAAUUGCAGGGGUCUAAAACGACCUGAAUAUUUCAGAUCAAA
RNA 2: GGGAAUGGAUCCACAUCUACGAAUUCGUUUUUGAUCUGAAAUCUUCAGGUGUGCAGAUCGGAAGAGCACACGU
B15: target 3 insC 3' of 9,insA 3' of 6 (mixed)
RNA 1: CACCCGUGCAAAAUUGCAGGGGUCUAAAACGACCUGAAUAUUUCAGAUCAAA
RNA 2: GGGAAUGGAUCCACAUCUACGAAUUCGUUUUUGAUCUGAAAUACUUCAAGGUCUGCAGAUCGGAAGAGCACACGU
B16: target 3 G19U (mixed)
RNA 1: CACCCGUGCAAAAUUGCAGGGGUCUAAAACGACCUGAAUAUUUCAGAUCAAA
RNA 2: GGGAAUGGAUCCACAUCUACGAAUUCGUUUUUUAUCUGAAAUAUUCAGGUCUGCAGAUCGGAAGAGCACACGU
B17: target 3 G3A,C6G (mixed)
RNA 1: CACCCGUGCAAAAUUGCAGGGGUCUAAAACGACCUGAAUAUUUCAGAUCAAA
RNA 2: GGGAAUGGAUCCACAUCUACGAAUUCGUUUUUGAUCUGAAAUAUUGAGAUCUGCAGAUCGGAAGAGCACACGU
B18: target 3 insA 3' of 22,insU 3' of 19 (mixed)
RNA 1: CACCCGUGCAAAAUUGCAGGGGUCUAAAACGACCUGAAUAUUUCAGAUCAAA
RNA 2: GGGAAUGGAUCCACAUCUACGAAUUCGUUUAUUGUAUCUGAAAUAUUCAGGUCUGCAGAUCGGAAGAGCACACGU
B19: target 3 insG 3' of 7,insU 3' of 4 (mixed)
RNA 1: CACCCGUGCAAAAUUGCAGGGGUCUAAAACGACCUGAAUAUUUCAGAUCAAA
RNA 2: GGGAAUGGAUCCACAUCUACGAAUUCGUUUUUGAUCUGAAAUAUUGCAGUGUCUGCAGAUCGGAAGAGCACACGU
B20: target 3 C6U,A11G (mixed)
RNA 1: CACCCGUGCAAAAUUGCAGGGGUCUAAAACGACCUGAAUAUUUCAGAUCAAA
RNA 2: GGGAAUGGAUCCACAUCUACGAAUUCGUUUUUGAUCUGAAGUAUUUAGGUCUGCAGAUCGGAAGAGCACACGU
B21: target 3 insA 3' of 14,insA 3' of 2 (mixed)
RNA 1: CACCCGUGCAAAAUUGCAGGGGUCUAAAACGACCUGAAUAUUUCAGAUCAAA
RNA 2: GGGAAUGGAUCCACAUCUACGAAUUCGUUUUUGAUCUGAAAAUAUUCAGGUACUGCAGAUCGGAAGAGCACACGU
B22: target 3 insG 3' of 2,insA 3' of 2 (mixed)
RNA 1: CACCCGUGCAAAAUUGCAGGGGUCUAAAACGACCUGAAUAUUUCAGAUCAAA
RNA 2: GGGAAUGGAUCCACAUCUACGAAUUCGUUUUUGAUCUGAAAUAUUCAGGUGACUGCAGAUCGGAAGAGCACACGU
B23: target 3 G4C,U7G (mixed)
RNA 1: CACCCGUGCAAAAUUGCAGGGGUCUAAAACGACCUGAAUAUUUCAGAUCAAA
RNA 2: GGGAAUGGAUCCACAUCUACGAAUUCGUUUUUGAUCUGAAAUAUGCACGUCUGCAGAUCGGAAGAGCACACGU
B24: target 3 U2A,A11G (mixed)
RNA 1: CACCCGUGCAAAAUUGCAGGGGUCUAAAACGACCUGAAUAUUUCAGAUCAAA
RNA 2: GGGAAUGGAUCCACAUCUACGAAUUCGUUUUUGAUCUGAAGUAUUCAGGACUGCAGAUCGGAAGAGCACACGU
B25: target 3 A11G,A12G (mixed)
RNA 1: CACCCGUGCAAAAUUGCAGGGGUCUAAAACGACCUGAAUAUUUCAGAUCAAA
RNA 2: GGGAAUGGAUCCACAUCUACGAAUUCGUUUUUGAUCUGAGGUAUUCAGGUCUGCAGAUCGGAAGAGCACACGU
B26: target 3 insC 3' of 5,insC 3' of 5 (mixed)
RNA 1: CACCCGUGCAAAAUUGCAGGGGUCUAAAACGACCUGAAUAUUUCAGAUCAAA
RNA 2: GGGAAUGGAUCCACAUCUACGAAUUCGUUUUUGAUCUGAAAUAUUCACCGGUCUGCAGAUCGGAAGAGCACACGU
B27: target 3 C1A,U8G (mixed)
RNA 1: CACCCGUGCAAAAUUGCAGGGGUCUAAAACGACCUGAAUAUUUCAGAUCAAA
RNA 2: GGGAAUGGAUCCACAUCUACGAAUUCGUUUUUGAUCUGAAAUAGUCAGGUAUGCAGAUCGGAAGAGCACACGU

This data set concerns the target T1, EsCas13d, nuclease-dead (Eubacterium siraeum, UniProt B0MS50, R295A;H300A;R849A;H854A).
T1 sequence: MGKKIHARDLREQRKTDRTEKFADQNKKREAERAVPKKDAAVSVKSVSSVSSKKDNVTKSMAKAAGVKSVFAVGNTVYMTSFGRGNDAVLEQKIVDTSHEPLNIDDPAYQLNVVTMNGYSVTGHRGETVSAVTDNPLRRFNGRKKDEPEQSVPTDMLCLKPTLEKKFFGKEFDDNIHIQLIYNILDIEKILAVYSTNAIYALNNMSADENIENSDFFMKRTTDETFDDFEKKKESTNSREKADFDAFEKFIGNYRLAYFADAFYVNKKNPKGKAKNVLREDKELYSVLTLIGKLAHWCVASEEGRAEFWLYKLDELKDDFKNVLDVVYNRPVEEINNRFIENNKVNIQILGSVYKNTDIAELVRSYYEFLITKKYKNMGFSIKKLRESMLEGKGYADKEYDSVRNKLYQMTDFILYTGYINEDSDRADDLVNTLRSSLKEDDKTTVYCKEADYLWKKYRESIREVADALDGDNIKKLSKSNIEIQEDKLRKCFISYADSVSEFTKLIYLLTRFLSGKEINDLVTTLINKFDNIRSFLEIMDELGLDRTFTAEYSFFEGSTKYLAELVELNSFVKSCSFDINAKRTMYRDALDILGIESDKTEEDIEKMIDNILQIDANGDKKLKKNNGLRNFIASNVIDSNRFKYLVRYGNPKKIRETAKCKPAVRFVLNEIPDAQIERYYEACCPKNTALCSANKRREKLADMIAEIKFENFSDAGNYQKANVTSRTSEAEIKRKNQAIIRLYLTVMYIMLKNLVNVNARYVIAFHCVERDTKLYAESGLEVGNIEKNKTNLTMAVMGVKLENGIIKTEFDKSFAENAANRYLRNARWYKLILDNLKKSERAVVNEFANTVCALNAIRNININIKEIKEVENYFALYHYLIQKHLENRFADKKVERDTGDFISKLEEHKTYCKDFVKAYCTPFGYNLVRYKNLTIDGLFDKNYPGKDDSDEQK
Nature of the data set: crRNA (strand 1, pre-loaded); Mg2+; 40 mM Tris-HCl pH 7.5, 150 mM NaCl, 6 mM MgCl2, 1 mM DTT, 0.1% Tween-20, 0.2 mg/ml BSA; 25 C; 10 min per concentration, then washed. The following applies: tags: His6-TwinStrep-SUMO cleaved; N-terminal SNAP kept (SNAP-Surface 488); label: 3' end held by stalled T7 RNA polymerase.
Molecule B1 displayed an equilibrium dissociation constant (Kd) of 95 ± 19 nM.
For B2, the affinity, expressed as Kd, was 71 ± 12 nM.
On to B3, for which binding was characterised by a dissociation constant (Kd) of 86 ± 34.5 nM.
B4: the Kd is ~56 nM.
The figure for B5 is 88 ± 21.5 nM; for B6 it is 42.3 ± 4.95 nM; for B7 it is 55 ± 13 nM.
As to B8, the Kd was found to be 71.5 ± 21.5 nM.
The figure for B9 is 32.2 ± 3.15 nM.
As to B10, binding was characterised by a dissociation constant (Kd) of 8.69 ± 0.57 nM.
With B11, binding was put at a Kd of 23.9 ± 3.2 nM.
The molecule B12 yielded a Kd of 87 ± 14.5 nM.
B13: the Kd amounted to 49 ± 5 nM.
In the case of B14, the Kd is 54 ± 18 nM.
For the molecule B15, the affinity, expressed as Kd, was 76.5 ± 16 nM.
Under B16 stands 83 ± 9.5 nM; under B17, 46.5 ± 7 nM; under B18, 65 ± 15 nM.
Turning to B19, the Kd is 32 ± 6.1 nM.
The figure for B20 is 47 ± 10.5 nM; for B21 it is 64 ± 10 nM.
With B22, the Kd amounted to 20.3 ± 2.6 nM.
Consider B23, for which binding was characterised by a dissociation constant (Kd) of 44.1 ± 4.1 nM.
B24 came in with a Kd of 73.5 ± 24 nM.
For the molecule B25, the Kd worked out at 73 ± 29.5 nM.
On to B26, for which binding was characterised by a dissociation constant (Kd) of 11.1 ± 0.7 nM.
For B27, the Kd came out at 74 ± 16 nM.
